From publication PMC6650976, “Experimental Insight into the Structural and Functional Roles of the ‘Black’ and ‘Gray’ Clusters in Recoverin, a Calcium Binding Protein with Four EF-Hand Motifs” (Molecules, 2019)

Assays:
[1] = target: the molecule itself; assay: cross-linking; Mg2+-loaded proteins: 0.02% glutaric aldehyde, 16 h, 20 °C, protein 1 mg/mL, 20 mM Tricine-KOH pH 7.4, 50 mM KCl, 1 mM DTT, 1 mM MgCl2, 1 mM EGTA; SDS-PAGE, Coomassie, densitometry; self-association
In short: (§1)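 Metal-free recoverin (human, recombinant, E. coli-expressed, purified, treated by gel filtration), along with its modified forms, was crosslinked with 0.02% glutaric aldehyde at 1.0 mg/mL for 16 h at 20 °C. The buffer was 20 mM Tricine-KOH pH 7.4, 50 mM KCl and 1 mM DTT, plus EDTA, MgCl2/EGTA or CaCl2. The share of each oligomer band was quantified in Quantity One as a percentage from scanned, Coomassie-stained gels, which were 15% resolving SDS-PAGE run at 5 µg/lane.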

[2] = target: the molecule itself; assay: cross-linking; Ca2+-loaded proteins: 0.02% glutaric aldehyde, 16 h, 20 °C, protein 1 mg/mL, 20 mM Tricine-KOH pH 7.4, 50 mM KCl, 1 mM DTT, 1 mM CaCl2; SDS-PAGE, Coomassie, densitometry; self-association
In short: as §1

[3] = target: the molecule itself; assay: cross-linking; apo-proteins: 0.02% glutaric aldehyde, 16 h, 20 °C, protein 1 mg/mL, 20 mM Tricine-KOH pH 7.4, 50 mM KCl, 1 mM DTT, 1 mM EDTA; SDS-PAGE, Coomassie, densitometry; self-association
In short: as §1

Protein	Dimer 50 kDa, % [1] [%]	Monomer 20 kDa, % [1] [%]	Dimer 50 kDa, % [2] [%]	Monomer 20 kDa, % [2] [%]	Multimer 100–250 kDa, % [2] [%]	Trimer 70–100 kDa, % [2] [%]	Dimer 50 kDa, % [3] [%]	Monomer 20 kDa, % [3] [%]
recombinant wild type human recoverin (natural protein, UniProt P35243 1-200, looked up, myristoyl group at the N terminus (degree of myristoylation exceeded 89%), recoverin, human, UniProt P35243; cDNA from Y79 retinoblastoma cells, amplified with primers from the start codon to the stop codon, subcloned into pET-15b(+) by NcoI and XhoI; also called rWT; rWT recoverin; source: E. coli pET15b rec/pBB131/BL21(DE3)RILLC+, purified (phenyl-Sepharose, Toyopearl SuperQ-650M)) MGNSKSGALSKEILEELQLNTKFSEEELCSWYQSFLKDCPTGRITQQQFQSIYAKFFPDTDPKAYAQHVFRSFDSNLDGTLDFKEYVIALHMTTAGKTNQKLEWAFSLYDVDGNGTISKNEVLEIVMAIFKMITPEDVKLLPDDENTPEKRAEKIWKYFGKNDDDKLTEKEFIEGTLANKEILRLIQFEPQKVKEKMKNA	31.55 ± 0.09	68.45 ± 0.09	30.9 ± 0.4	15.5 ± 0.6	21.55 ± 0.09	32 ± 1.1	33.1 ± 1.1	66.9 ± 1.1
human recoverin mutant F83A (natural protein, UniProt P35243 1-200, looked up, myristoylated (fraction of non-myristoylated forms did not exceed 16%), recoverin, human, UniProt P35243, N-terminal 'black' cluster mutant; Parent construct as m1; source: E. coli, expressed and purified similarly to the rWT protein (phenyl-Sepharose, Toyopearl SuperQ-650M)) MGNSKSGALSKEILEELQLNTKFSEEELCSWYQSFLKDCPTGRITQQQFQSIYAKFFPDTDPKAYAQHVFRSFDSNLDGTLDAKEYVIALHMTTAGKTNQKLEWAFSLYDVDGNGTISKNEVLEIVMAIFKMITPEDVKLLPDDENTPEKRAEKIWKYFGKNDDDKLTEKEFIEGTLANKEILRLIQFEPQKVKEKMKNA	33.8 ± 1	66.2 ± 1	28.7 ± 0.8	38.4 ± 1.4	13.2 ± 0.3	19.7 ± 0.4	35.6 ± 0.8	64.4 ± 0.8
human recoverin mutant F106A (natural protein, UniProt P35243 1-200, looked up, myristoylated (fraction of non-myristoylated forms did not exceed 16%), recoverin, human, UniProt P35243, C-terminal 'black' cluster mutant; Parent construct as m1; source: E. coli, expressed and purified similarly to the rWT protein (phenyl-Sepharose, Toyopearl SuperQ-650M)) MGNSKSGALSKEILEELQLNTKFSEEELCSWYQSFLKDCPTGRITQQQFQSIYAKFFPDTDPKAYAQHVFRSFDSNLDGTLDFKEYVIALHMTTAGKTNQKLEWAASLYDVDGNGTISKNEVLEIVMAIFKMITPEDVKLLPDDENTPEKRAEKIWKYFGKNDDDKLTEKEFIEGTLANKEILRLIQFEPQKVKEKMKNA	35.4 ± 1	64.6 ± 1	27.11 ± 0.08	17.9 ± 2.1	25 ± 0.8	30 ± 1.4	38 ± 0.3	62 ± 0.3
human recoverin mutant F49A (natural protein, UniProt P35243 1-200, looked up, myristoylated (fraction of non-myristoylated forms did not exceed 16%), recoverin, human, UniProt P35243, N-terminal 'gray' cluster mutant; Parent construct as m1; source: E. coli, expressed and purified similarly to the rWT protein (phenyl-Sepharose, Toyopearl SuperQ-650M)) MGNSKSGALSKEILEELQLNTKFSEEELCSWYQSFLKDCPTGRITQQQAQSIYAKFFPDTDPKAYAQHVFRSFDSNLDGTLDFKEYVIALHMTTAGKTNQKLEWAFSLYDVDGNGTISKNEVLEIVMAIFKMITPEDVKLLPDDENTPEKRAEKIWKYFGKNDDDKLTEKEFIEGTLANKEILRLIQFEPQKVKEKMKNA	32.1 ± 0.5	67.9 ± 0.5	25.5 ± 0.5	30.6 ± 1.6	21.08 ± 0.09	22.8 ± 1.3	36.7 ± 1	63.3 ± 1
human recoverin mutant V122A (natural protein, UniProt P35243 1-200, looked up, myristoylated (fraction of non-myristoylated forms did not exceed 16%), recoverin, human, UniProt P35243, C-terminal 'gray' cluster mutant; Parent construct as m1; source: E. coli, expressed and purified similarly to the rWT protein (phenyl-Sepharose, Toyopearl SuperQ-650M)) MGNSKSGALSKEILEELQLNTKFSEEELCSWYQSFLKDCPTGRITQQQFQSIYAKFFPDTDPKAYAQHVFRSFDSNLDGTLDFKEYVIALHMTTAGKTNQKLEWAFSLYDVDGNGTISKNEALEIVMAIFKMITPEDVKLLPDDENTPEKRAEKIWKYFGKNDDDKLTEKEFIEGTLANKEILRLIQFEPQKVKEKMKNA	35.3 ± 0.9	64.7 ± 0.9	27.1 ± 1.3	15.8 ± 0.2	26.7 ± 2.1	30.3 ± 0.6	27 ± 1.2	73 ± 1.2
human recoverin mutant W156A (natural protein, UniProt P35243 1-200, looked up, myristoylated (fraction of non-myristoylated forms did not exceed 16%), recoverin, human, UniProt P35243, C-terminal 'gray' cluster mutant; Parent construct as m1; source: E. coli, expressed and purified similarly to the rWT protein (phenyl-Sepharose, Toyopearl SuperQ-650M)) MGNSKSGALSKEILEELQLNTKFSEEELCSWYQSFLKDCPTGRITQQQFQSIYAKFFPDTDPKAYAQHVFRSFDSNLDGTLDFKEYVIALHMTTAGKTNQKLEWAFSLYDVDGNGTISKNEVLEIVMAIFKMITPEDVKLLPDDENTPEKRAEKIAKYFGKNDDDKLTEKEFIEGTLANKEILRLIQFEPQKVKEKMKNA	36.8 ± 0.2	63.2 ± 0.2	25 ± 1.1	20.4 ± 0.7	29.8 ± 0.9	24.8 ± 1	35.4 ± 0.8	64.6 ± 0.8
human recoverin mutant F35A (natural protein, UniProt P35243 1-200, looked up, myristoylated (fraction of non-myristoylated forms did not exceed 16%), recoverin, human, UniProt P35243, N-terminal 'black' cluster mutant; Parent construct as m1; source: E. coli, expressed and purified similarly to the rWT protein (phenyl-Sepharose, Toyopearl SuperQ-650M)) MGNSKSGALSKEILEELQLNTKFSEEELCSWYQSALKDCPTGRITQQQFQSIYAKFFPDTDPKAYAQHVFRSFDSNLDGTLDFKEYVIALHMTTAGKTNQKLEWAFSLYDVDGNGTISKNEVLEIVMAIFKMITPEDVKLLPDDENTPEKRAEKIWKYFGKNDDDKLTEKEFIEGTLANKEILRLIQFEPQKVKEKMKNA	30.9 ± 1.9	69.1 ± 1.9	31.7 ± 0.3	37.4 ± 3.6	13.2 ± 3.3	17.78 ± 0.07	37.2 ± 0.5	62.8 ± 0.5
human recoverin mutant F172A (natural protein, UniProt P35243 1-200, looked up, myristoylated (fraction of non-myristoylated forms did not exceed 16%), recoverin, human, UniProt P35243, C-terminal 'black' cluster mutant; Parent construct as m1; source: E. coli, expressed and purified similarly to the rWT protein (phenyl-Sepharose, Toyopearl SuperQ-650M)) MGNSKSGALSKEILEELQLNTKFSEEELCSWYQSFLKDCPTGRITQQQFQSIYAKFFPDTDPKAYAQHVFRSFDSNLDGTLDFKEYVIALHMTTAGKTNQKLEWAFSLYDVDGNGTISKNEVLEIVMAIFKMITPEDVKLLPDDENTPEKRAEKIWKYFGKNDDDKLTEKEAIEGTLANKEILRLIQFEPQKVKEKMKNA	36.6 ± 0.7	63.4 ± 0.7	29.3 ± 0.2	22 ± 0.9	20 ± 0.3	28.8 ± 0.8	33.6 ± 2	66.4 ± 2
human recoverin mutant Q46A (natural protein, UniProt P35243 1-200, looked up, myristoylated (fraction of non-myristoylated forms did not exceed 16%), recoverin, human, UniProt P35243, N-terminal 'gray' cluster mutant; Parent construct as m1; source: E. coli, expressed and purified similarly to the rWT protein (phenyl-Sepharose, Toyopearl SuperQ-650M)) MGNSKSGALSKEILEELQLNTKFSEEELCSWYQSFLKDCPTGRITAQQFQSIYAKFFPDTDPKAYAQHVFRSFDSNLDGTLDFKEYVIALHMTTAGKTNQKLEWAFSLYDVDGNGTISKNEVLEIVMAIFKMITPEDVKLLPDDENTPEKRAEKIWKYFGKNDDDKLTEKEFIEGTLANKEILRLIQFEPQKVKEKMKNA	30.2 ± 0.5	69.8 ± 0.5	27.3 ± 1.5	31.9 ± 1.9	18.4 ± 0.6	22.3 ± 1	35.1 ± 1.8	64.9 ± 1.8
human recoverin mutant E169A (natural protein, UniProt P35243 1-200, looked up, myristoylated (fraction of non-myristoylated forms did not exceed 16%), recoverin, human, UniProt P35243, C-terminal 'black' cluster mutant; Parent construct as m1; source: E. coli, expressed and purified similarly to the rWT protein (phenyl-Sepharose, Toyopearl SuperQ-650M)) MGNSKSGALSKEILEELQLNTKFSEEELCSWYQSFLKDCPTGRITQQQFQSIYAKFFPDTDPKAYAQHVFRSFDSNLDGTLDFKEYVIALHMTTAGKTNQKLEWAFSLYDVDGNGTISKNEVLEIVMAIFKMITPEDVKLLPDDENTPEKRAEKIWKYFGKNDDDKLTAKEFIEGTLANKEILRLIQFEPQKVKEKMKNA	33.7 ± 0.5	66.3 ± 0.5	27 ± 0.3	16.1 ± 1.5	27.2 ± 0.9	29.6 ± 0.3	38.9 ± 1.2	61.1 ± 1.2
human recoverin mutant F70A (natural protein, UniProt P35243 1-200, looked up, myristoylated (fraction of non-myristoylated forms did not exceed 16%), recoverin, human, UniProt P35243, N-terminal 'gray' cluster mutant; Parent construct as m1; source: E. coli, expressed and purified similarly to the rWT protein (phenyl-Sepharose, Toyopearl SuperQ-650M)) MGNSKSGALSKEILEELQLNTKFSEEELCSWYQSFLKDCPTGRITQQQFQSIYAKFFPDTDPKAYAQHVARSFDSNLDGTLDFKEYVIALHMTTAGKTNQKLEWAFSLYDVDGNGTISKNEVLEIVMAIFKMITPEDVKLLPDDENTPEKRAEKIWKYFGKNDDDKLTEKEFIEGTLANKEILRLIQFEPQKVKEKMKNA	26.9 ± 0.9	73.1 ± 0.9	29.3 ± 1.1	40.1 ± 1.8	11.4 ± 0.2	19.1 ± 0.5	29.3 ± 1.7	70.7 ± 1.7
human recoverin mutant K119A (natural protein, UniProt P35243 1-200, looked up, myristoylated (fraction of non-myristoylated forms did not exceed 16%), recoverin, human, UniProt P35243, C-terminal 'gray' cluster mutant; Parent construct as m1; source: E. coli, expressed and purified similarly to the rWT protein (phenyl-Sepharose, Toyopearl SuperQ-650M)) MGNSKSGALSKEILEELQLNTKFSEEELCSWYQSFLKDCPTGRITQQQFQSIYAKFFPDTDPKAYAQHVFRSFDSNLDGTLDFKEYVIALHMTTAGKTNQKLEWAFSLYDVDGNGTISANEVLEIVMAIFKMITPEDVKLLPDDENTPEKRAEKIWKYFGKNDDDKLTEKEFIEGTLANKEILRLIQFEPQKVKEKMKNA	46.4 ± 5	53.6 ± 5	24.4 ± 0.6	19.5 ± 0.4	31.38 ± 0.05	24.7 ± 0.2	36.7 ± 0.8	63.3 ± 0.8
